T1: BMP9 as used in biolayer interferometry (human) (UniProt Q9UK05)
T1 sequence (Q9UK05 320-429, looked up): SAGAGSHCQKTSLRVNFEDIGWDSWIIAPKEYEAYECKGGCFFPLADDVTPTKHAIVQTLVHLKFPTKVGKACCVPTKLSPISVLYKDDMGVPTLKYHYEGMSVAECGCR

B1: bone morphogenetic protein 9 (BMP9), mature homodimer, untagged, expressed in HEK293 cells (ligand, human, UniProt Q9UK05 320-429, looked up)
chain: T1 sequence (Q9UK05 320-429, looked up)
B2: full-length ectodomain of ENG (ECTO) as used in biolayer interferometry (receptor)
chain: ETVHCDLQPVGPERGEVTYTTSQVSKGCVAQAPNAILEVHVLFLEFPTGPSQLELTLQASKQNGTWPREVLLVLSVNSSVFLHLQALGIPLHLAYNSSLVTFQEPPGVNTTELPSFPKTQILEWAAERGPITSAAELNDPQSILLRLGQAQGSLSFCMLEASQDMGRTLEWRPRTPALVRGCHLEGVAGHKEAHILRVLPGHSAGPRTVTVKVELSCAPGDLDAVLILQGPPYVSWLIDANHNMQIWTTGEYSFKIFPEKNIRGFKLPDTPQGLLGEARMLNASIVASFVELPLASIVSLHASSCGGRLQTSPAPIQTTPPKDTCSPELLMSLIQTKCADDAMTLVLKKELVAHLKCTITGLTFWDPSCEAEDRGDKFVLRSAYSSCGMQVSASMISNEAVVNILSSSSPQRKKVHCLNMDSLSFQLGLYLSPHFLQASNTIEPGQQSFVQVRVSPSVSEFLLQLDSCHLDLGPEGGTVELIQGRAAKGNCVSLLSPSPEGDPRFSFLLHFYTVPIPKTGTLSCTVALRPKTGSQDQEVHRTVFMRLNIISPDLSGCTSKG
B3: His-ECTO (His-tagged ENG ectodomain) of the purified His-ECTO-BMP9 complex (receptor, human, UniProt P17813 26-586, looked up)
chain: B2 chain
B4: His-^MECTO (His-tagged, mMBP-fused ENG ectodomain) (receptor, human, UniProt P17813 26-586, looked up)
chain: B2 chain
B5: ECTO-Myc (Myc-tagged ENG ectodomain) (receptor, human, UniProt P17813 26-586, looked up)
chain: B2 chain
B6: ^MZP (mMBP-fused ENG P338-G581, zona pellucida module) (domain or fragment, human, UniProt P17813 338-581, looked up)
chain: PAPIQTTPPKDTCSPELLMSLIQTKCADDAMTLVLKKELVAHLKCTITGLTFWDPSCEAEDRGDKFVLRSAYSSCGMQVSASMISNEAVVNILSSSSPQRKKVHCLNMDSLSFQLGLYLSPHFLQASNTIEPGQQSFVQVRVSPSVSEFLLQLDSCHLDLGPEGGTVELIQGRAAKGNCVSLLSPSPEGDPRFSFLLHFYTVPIPKTGTLSCTVALRPKTGSQDQEVHRTVFMRLNIISPDLSG
B7: unfused (non-mMBP fused) wild-type OR, ENG E26-S337 (domain or fragment)
chain: ETVHCDLQPVGPERGEVTYTTSQVSKGCVAQAPNAILEVHVLFLEFPTGPSQLELTLQASKQNGTWPREVLLVLSVNSSVFLHLQALGIPLHLAYNSSLVTFQEPPGVNTTELPSFPKTQILEWAAERGPITSAAELNDPQSILLRLGQAQGSLSFCMLEASQDMGRTLEWRPRTPALVRGCHLEGVAGHKEAHILRVLPGHSAGPRTVTVKVELSCAPGDLDAVLILQGPPYVSWLIDANHNMQIWTTGEYSFKIFPEKNIRGFKLPDTPQGLLGEARMLNASIVASFVELPLASIVSLHASSCGGRLQTS
B8: ^MOR as used in biolayer interferometry (domain or fragment)
chain: B7 chain

Experiments:
[1] = biological target: B3; experiment: SEC-MALS
[2] = biological target: T1, BMP9 as used in biolayer interferometry (human); experiment: BLI
[3] = biological target: the molecule itself; experiment: SEC-MALS
[4] = biological target: the molecule itself; experiment: non-reducing SDS-PAGE and immunoblot

Row | Binder | Kd [2] | koff [2] | kon [2] | stoichiometry N [4] | also measured
1 | B1 |  |  |  |  | stoichiometry N [1]: 1 2:2 (ENG chains : BMP9 chains)
2 | B2 | 9.81 nM | 0.00198 s⁻¹ | 200000 M⁻¹ s⁻¹ |  | 
3 | B3 |  |  |  |  | stoichiometry N [3]: 2
4 | B4 |  |  |  | 2 | 
5 | B5 |  |  |  | 2 | 
6 | B6 |  |  |  | 2 | 
7 | B7 | 295 nM | 0.0871 s⁻¹ | 295000 M⁻¹ s⁻¹ |  | 
8 | B8 | 179 nM | 0.0622 s⁻¹ | 349000 M⁻¹ s⁻¹ |  | 

— publication PMC5464963 (Cell Reports, 2017)
